Experimental findings from doi:10.1101/2025.09.26.678709, “MRAP2 potentiates GPCR signaling by conserved mechanisms that are disrupted by obesity-associated genetic variants” (bioRxiv, 2025) are described below.

Common to all, as to conditions: partners not purified
One assay deals with T1, HA-Halo-MRAP2 (human, UniProt Q96G30 1-205, CA-Sulfo646 dye on the Halo tag).
T1 construct: melanocortin receptor-2 accessory protein-2 (MRAP2), human; N-terminal signal peptide from rat mGluR2 in the construct; also called melanocortin receptor-2 accessory protein-2; source: HEK293, transfected, in lysate (LMNG-CHS); not shown: HA, N-terminal, kept; Halo, N-terminal, kept
T1 sequence (looked up): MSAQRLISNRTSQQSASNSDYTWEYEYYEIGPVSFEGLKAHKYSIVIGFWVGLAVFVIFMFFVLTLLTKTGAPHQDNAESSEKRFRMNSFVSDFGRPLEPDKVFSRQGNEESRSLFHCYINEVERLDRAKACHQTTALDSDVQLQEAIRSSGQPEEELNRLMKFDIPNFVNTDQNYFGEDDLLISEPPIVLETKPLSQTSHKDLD
In words: single-molecule pull-down (SiMPull) with photobleaching step counting; two-color: HA-Halo protein (CA-Sulfo646) and FLAG-CLIP protein (BC-DY547) co-expressed in HEK293 (300 ng Halo and 600 ng CLIP plasmid), lysed in 0.5% LMNG/0.05% CHS, captured by biotinylated anti-HA antibody, co-localized spots analysed by TIRF; also reanalysed for monomeric against oligomeric GPCR.

A further assay concerns the target T2, HA-Halo-GHSR (human, UniProt Q92847 1-366, CA-Sulfo646 dye on the Halo tag).
T2 construct: growth hormone secretagogue receptor-1a (GHSR), human; N-terminal signal peptide from rat mGluR2 precedes the HA tag in the construct (pRK5 vector); also called ss-HA-Halo-GHSR; growth hormone secretagogue receptor-1a; source: HEK293, transfected, in lysate (LMNG-CHS); not shown: HA, N-terminal, kept; Halo, N-terminal, kept
The description is as above.

The target in a further assay is T3, HA-Halo-MC4R (human, UniProt P32245 1-332, CA-Sulfo646 dye on the Halo tag).
T3 construct: melanocortin receptor-4 (MC4R), human; N-terminal signal peptide from rat mGluR2 in the construct; also called melanocortin receptor 4; source: HEK293, transfected, in lysate (LMNG-CHS); not shown: HA, N-terminal, kept; Halo, N-terminal, kept
Described as above.

The next assay has as its target T4, GHSR-LgC (UniProt Q92847 1-366).
T4 construct: GHSR cloned into the LgBiT-C plasmid (Promega); also called GHSR with LgBiT at the C-terminus; source: HEK293, transfected, in cells; not shown: LgBiT, C-terminal, kept
Nature of the assay: split reporter (BiFC, NanoBiT); HEK293 cells transfected with 100 ng GHSR-LgC and MRAP2-SmC, 48 h, Nano-Glo substrate, 37°C; normalised to cells with LgC-empty and SmC-empty.

One may read the stoichiometry N as a count of units in the complex or per binding partner.

T3 sequence (P32245 whole entry): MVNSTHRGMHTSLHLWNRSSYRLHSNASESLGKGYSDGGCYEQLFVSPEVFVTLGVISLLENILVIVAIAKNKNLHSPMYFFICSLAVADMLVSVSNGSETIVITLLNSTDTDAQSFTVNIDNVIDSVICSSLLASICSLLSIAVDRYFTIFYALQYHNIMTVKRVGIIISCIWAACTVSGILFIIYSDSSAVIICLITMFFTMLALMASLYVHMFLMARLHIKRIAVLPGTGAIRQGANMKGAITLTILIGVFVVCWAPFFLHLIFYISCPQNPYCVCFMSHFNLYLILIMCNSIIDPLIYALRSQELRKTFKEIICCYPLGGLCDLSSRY

B1: FLAG-CLIP-GHSR (receptor, human, UniProt Q92847 1-366, looked up)
chain: MWNATPSEEPGFNLTLADLDWDASPGNDSLGDELLQLFPAPLLAGVTATCVALFVVGIAGNLLTMLVVSRFRELRTTTNLYLSSMAFSDLLIFLCMPLDLVRLWQYRPWNFGDLLCKLFQFVSESCTYATVLTITALSVERYFAICFPLRAKVVVTKGRVKLVIFVIWAVAFCSAGPIFVLVGVEHENGTDPWDTNECRPTEFAVRSGLLTVMVWVSSIFFFLPVFCLTVLYSLIGRKLWRRRRGDAVVGASLRDQNHKQTVKMLAVVVFAFILCWLPFHVGRYLFSKSFEPGSLEIAQISQYCNLVSFVLFYLSAAINPILYNIMSKKYRVAVFRLLGFEPFSQRKLSTLKDESSRAWTESSINT
modifications: BC-DY547 dye on the CLIP tag
notes: growth hormone secretagogue receptor-1a (GHSR), human; N-terminal signal peptide from rat mGluR2 precedes the FLAG tag in the construct (pRK5 vector); also called ss-FLAG-CLIP-GHSR; source: HEK293, transfected, in lysate (LMNG-CHS); not shown: CLIP, N-terminal, kept
Consider B1, for which, in the assay with HA-Halo-MRAP2, the “percent of co-localized spots with 2-step bleaching for MRAP2” value (“percent of co-localized spots” below) worked out at 22% and the “stoichiometry N” value amounted to 1 MRAP2 per GHSR.

B2: FLAG-CLIP-MRAP2 (natural protein, human, UniProt Q96G30 1-205, looked up)
chain: MSAQRLISNRTSQQSASNSDYTWEYEYYEIGPVSFEGLKAHKYSIVIGFWVGLAVFVIFMFFVLTLLTKTGAPHQDNAESSEKRFRMNSFVSDFGRPLEPDKVFSRQGNEESRSLFHCYINEVERLDRAKACHQTTALDSDVQLQEAIRSSGQPEEELNRLMKFDIPNFVNTDQNYFGEDDLLISEPPIVLETKPLSQTSHKDLD
modifications: BC-DY547 dye on the CLIP tag
notes: melanocortin receptor-2 accessory protein-2 (MRAP2), human; N-terminal signal peptide from rat mGluR2 in the construct; source: HEK293, transfected, in lysate (LMNG-CHS); not shown: CLIP, N-terminal, kept
For B2, in the assay with HA-Halo-GHSR, the “percent of co-localized spots” value is 27% and the “stoichiometry N” value was 1 MRAP2 per GHSR. Further, in the assay with HA-Halo-MC4R, the “percent of co-localized spots” value turned out to be 29% and the “stoichiometry N” value is 1 MRAP2 per MC4R.

B3: MRAP2-SmC (natural protein, UniProt Q96G30 1-205, looked up)
chain: MSAQRLISNRTSQQSASNSDYTWEYEYYEIGPVSFEGLKAHKYSIVIGFWVGLAVFVIFMFFVLTLLTKTGAPHQDNAESSEKRFRMNSFVSDFGRPLEPDKVFSRQGNEESRSLFHCYINEVERLDRAKACHQTTALDSDVQLQEAIRSSGQPEEELNRLMKFDIPNFVNTDQNYFGEDDLLISEPPIVLETKPLSQTSHKDLD
notes: MRAP2; printed as MRAP2-SmC in the results and SmC-MRAP2 in the methods; also called SmC-MRAP2; source: HEK293, transfected, in cells
Consider B3, for which, in the assay with GHSR-LgC, the “fold luminescence over negative controls” value came to 400 fold.
